Experimental data from the supplement of paper PMC12042874.
± gives the uncertainty stated by the source.

Experiment: amyloid nucleation score (Sup35N fusion, yeast selection) (log enrichment); library NNK3; higher = more nucleation; inactive = no reads after selection
Method in brief: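 Growth for 7 days at 30°C on medium lacking adenine and uracil followed a 24-hour induction with 100 μM copper sulfate of psi-negative yeast expressing peptides of 20 random codons fused to Sup35N. Input and output plasmid inserts were sequenced with Illumina, and sequences with under 100 input reads were excluded. Nucleation score is the DiMSum log enrichment of output over input reads, centred on the mode score of non-aggregating sequences.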
With SVHWEVRFYMDRYVLAYAVT the amyloid nucleation score was “inactive”.
With SVIILYRCSFRGWRSHASGN the amyloid nucleation score was 1.05 ± 0.1.
With SVILCFSV the amyloid nucleation score was “inactive”.
In the case of SVKNWPNVN, the amyloid nucleation score is reported as “inactive”.
For SVKVPWWDCINVRAHMWRMV, the amyloid nucleation score was “inactive”.
With SVLICINCNVEHV the amyloid nucleation score was 2.44 ± 0.083.
With SVLRYYSNESRLTVHLSVCI the amyloid nucleation score was “inactive”.
Work on SVLYRWGYRTGWEL yielded an amyloid nucleation score of 0.128 ± 0.52.
SVNVHCIREPWVADWTCCRL gave an amyloid nucleation score of 1.18 ± 0.16.
For SVRYVETYSHRTNTVDAAFV, the amyloid nucleation score was “inactive”.
For SVSARSRRLWGSMRIAVTVF, the amyloid nucleation score was “inactive”.
With SVSGRPGEMFSRYYWIYGMY the amyloid nucleation score was “inactive”.
For SVSLAHFGSRKLVFSG, the amyloid nucleation score was “inactive”.
In the case of SVSLLLRFVILLCTFVQYGW, the amyloid nucleation score is reported as “inactive”.
In the case of SVSNPRNRT, the amyloid nucleation score is reported as “inactive”.
With SVYGACSRFPTNVVYNRSEY the amyloid nucleation score was “inactive”.
For SVYPVFPTLFNSSYFSGTFG, the amyloid nucleation score was “inactive”.
With SWASQWLFTPLSTVRSYIIL the amyloid nucleation score was “inactive”.
For SWFGGRDYYKMHIVSG, the amyloid nucleation score was “inactive”.
In the case of SWFSVLLGLRTSRVIANSTY, the amyloid nucleation score is reported as “inactive”.
In the case of SWMDRILVRYWVVLDNRNFV, the amyloid nucleation score is reported as “inactive”.
In the case of SWNTL, the amyloid nucleation score is reported as “inactive”.
In the case of SWSRYYCLYCG, the amyloid nucleation score is reported as 2.97 ± 0.068.
In the case of SWVGTG, the amyloid nucleation score is reported as -0.331 ± 0.84.
In the case of SWVRMYIGEFLVSRCQMWST, the amyloid nucleation score is reported as “inactive”.
With SWVRTGFL the amyloid nucleation score was “inactive”.
Work on SYCATCHIPRENMSLQCVME yielded an amyloid nucleation score of 1.3 ± 0.1.
With SYDFIMVLPHEDRIDIVQQF the amyloid nucleation score was “inactive”.
With SYFDIFGTTDQVSVKSRMCT the amyloid nucleation score was “inactive”.
In the case of SYFFVIQGQLGCITGVDFIW, the amyloid nucleation score is reported as “inactive”.
For SYGLFR, the amyloid nucleation score was “inactive”.
In the case of SYGTSGCRRLVLWTYDSKFI, the amyloid nucleation score is reported as “inactive”.
With SYISNP the amyloid nucleation score was “inactive”.
For SYLCVATWSCPHYVGFSQHI, the amyloid nucleation score was “inactive”.
Work on SYMGHV yielded an amyloid nucleation score of 0.506 ± 0.43.
With SYNYRGADRWLT the amyloid nucleation score was “inactive”.
With SYRAARNFHMFLLYWHGTRW the amyloid nucleation score was “inactive”.
For SYRCMSESRFYYFLSCHARR, the amyloid nucleation score was “inactive”.
In the case of SYRPMHTDGLSLYSRQNLSY, the amyloid nucleation score is reported as “inactive”.
With SYSFEYNHSDKFVSLYYMDI the amyloid nucleation score was “inactive”.
In the case of SYSHYFILHHLRDSELSHCS, the amyloid nucleation score is reported as “inactive”.
In the case of SYSIWSLLEIDF, the amyloid nucleation score is reported as “inactive”.
For SYSSMCLPKNTKAHASWC, the amyloid nucleation score was “inactive”.
With SYVDLYVGWLNSWMYVMRSA the amyloid nucleation score was “inactive”.
In the case of TACMRNVRTNIGKHTSQYLH, the amyloid nucleation score is reported as “inactive”.
For TADIESMIMFNGRVPGHLSV, the amyloid nucleation score was “inactive”.
With TAESKRH the amyloid nucleation score was “inactive”.
In the case of TAKPYRDDNNGYSAYIHPCS, the amyloid nucleation score is reported as “inactive”.
For TAMYVMSFCW, the amyloid nucleation score was “inactive”.
With TAQFDNSCSGLQHVVVNK the amyloid nucleation score was “inactive”.
For TASTQSPYHFYCRV, the amyloid nucleation score was “inactive”.
For TCAIPHLKCSFLLYFGQYGC, the amyloid nucleation score was “inactive”.
For TCFLVFTCVVGV, the amyloid nucleation score was “inactive”.
With TCHLPAQSLLFIRCSTKAGV the amyloid nucleation score was “inactive”.
In the case of TCKCGSALK, the amyloid nucleation score is reported as 0.384 ± 0.21.
With TCLWARSPVLEDFEYGLHGS the amyloid nucleation score was “inactive”.
With TCMYNMVVGSLVGRWNC the amyloid nucleation score was 1.4 ± 0.13.
With TCRITP the amyloid nucleation score was “inactive”.
In the case of TCSDDCFLMKWYEDIRSVVT, the amyloid nucleation score is reported as “inactive”.
In the case of TCSRLVDQFNTFGTVY, the amyloid nucleation score is reported as “inactive”.
With TCTEGMGCPMSKAARVLLTR the amyloid nucleation score was “inactive”.
With TCVWRHAWQSGAHRVVRLAW the amyloid nucleation score was “inactive”.
For TCYSIERFACY, the amyloid nucleation score was “inactive”.
With TDCFGLMSSALP the amyloid nucleation score was “inactive”.
With TDELYWLKDFLYGFYNMKSP the amyloid nucleation score was “inactive”.
